# B1: MjPSS (phosphatidyl serine synthase, PS synthase) (Methanocaldococcus jannaschii DSM 2661) (protein)
# chain: MFSIRKIITISDYVTMLNIITGLLAILLNSFSLIYLSIIFDSLDGYVARKTGTVSDFGAELDSISDVVSFGVAPAYLLYNNFESNLALISAIIFCLCGALRLARFGILNVKGFIGLPIPAGALLLVGFCQLINSYLINSILAILIGLLMISDIKYPKYPNKIFIYIFAVSLCLAIVGIPHFALMLCLIYAIYGIIKYIRGD
# B2: phosphatidyl serine synthase from Methanocaldococcus jannaschii (native MjPSS) (enzyme)
# chain: B1 chain
# notes: phosphatidyl serine synthase (CDP-DAG alcohol O-phosphatidyl transferase, EC 2.7.8.8) of Methanocaldococcus jannaschii; the vector pSKB2LNB adds an N-terminal His6-Tag and a PreScission site; 400 protein residues are modelled for the two protomers; also called PS synthase; wild-type MjPSS; source: E. coli C41-(DE3), purified from membranes (DM-solubilised, Co2+ chelating Sepharose, size-exclusion …)
# B3: Seleno-methionine (SeMet) MjPSS (enzyme, Methanocaldococcus jannaschii)
# chain: B1 chain
# modifications: selenomethionine in place of methionine
# notes: phosphatidyl serine synthase (CDP-DAG alcohol O-phosphatidyl transferase, EC 2.7.8.8) of Methanocaldococcus jannaschii; same construct as m1, SeMet substituted; Same construct as m1; also called SeMet-labelled protein; SeMet substituted protein; source: E. coli, M9 minimal medium with SeMet, IPTG-induced; purified as native MjPSS (final SEC on Superdex 200 Increase)
# Legend:
# [1] = biological target: T1, MjPSS (phosphatidyl serine synthase, PS synthase) (Methanocaldococcus jannaschii, UniProt Q58609); assay: activity measured as a function of citrate; crystal structure ([…] Å); format: biochemical; details: reversible; reversed by more serine, blocks or competes with serine; structural site near Asn109, Lys111, Lys157, called non-specific by authors
# T1 construct: gene pssA; tag used for MST labelling), E. coli C41(DE3) membranes, solubilised in decyl maltoside; dimer
# [2] = biological target: T1, MjPSS (phosphatidyl serine synthase, PS synthase); assay: X-ray crystal structure (SeMet protein, […] Å); MST also shows binding; details: open state with CDP-DAG, Ca2+, Mg2+; Ser1 catalytic site, Ser2 judged artefact; in 7POW covalent to CDP-DAG in one protomer
# purified protein = substrate: N[C@@H](CO)C(=O)O; assay: purified protein; details: co-substrate CDP-DAG, co-purified Mg2+ and Ca2+, 50 mM Tris-HCl pH 7.0, 50 mM NaCl, 0.2% DM, temperature of this assay not given
# [3] = biological target: the molecule itself; assay: crystal structure; crystals grown in meso (lipidic cubic / sponge phase, monoolein with 2% (w/w) CDP-DAG), 292 K; two molecules in the asymmetric unit
molecule,measurement,setting,value
O=C(O)CC(O)(CC(=O)O)C(=O)O [citrate],inhibition,[1],"binding of citrate reversibly inhibits MjPSS, and that the inhibition is reversed by addition of more serine"
N[C@@H](CO)C(=O)O [L-serine],"X-ray crystal structure (SeMet protein, 1.85 Å); MST also shows binding",[2],7B1L for the open state with CDP-DAG and two serines
B1,Km,purified protein,460 ± 120 µM
same,kcat,purified protein,0.123 ± 0.007 s⁻¹
B2,stoichiometry N,[3],2
B3,stoichiometry N,[3],2
